According to paper PMC3431625:

Experiments:
[1] = molecular target: Bovine collagen type IV (bovine) (UniProt Q7SIB2); experiment: ELISA
[2] = molecular target: Pepsinized collagen type II (UniProt P02459); experiment: ELISA
Sequence of Pepsinized collagen type II (P02459 26-1487): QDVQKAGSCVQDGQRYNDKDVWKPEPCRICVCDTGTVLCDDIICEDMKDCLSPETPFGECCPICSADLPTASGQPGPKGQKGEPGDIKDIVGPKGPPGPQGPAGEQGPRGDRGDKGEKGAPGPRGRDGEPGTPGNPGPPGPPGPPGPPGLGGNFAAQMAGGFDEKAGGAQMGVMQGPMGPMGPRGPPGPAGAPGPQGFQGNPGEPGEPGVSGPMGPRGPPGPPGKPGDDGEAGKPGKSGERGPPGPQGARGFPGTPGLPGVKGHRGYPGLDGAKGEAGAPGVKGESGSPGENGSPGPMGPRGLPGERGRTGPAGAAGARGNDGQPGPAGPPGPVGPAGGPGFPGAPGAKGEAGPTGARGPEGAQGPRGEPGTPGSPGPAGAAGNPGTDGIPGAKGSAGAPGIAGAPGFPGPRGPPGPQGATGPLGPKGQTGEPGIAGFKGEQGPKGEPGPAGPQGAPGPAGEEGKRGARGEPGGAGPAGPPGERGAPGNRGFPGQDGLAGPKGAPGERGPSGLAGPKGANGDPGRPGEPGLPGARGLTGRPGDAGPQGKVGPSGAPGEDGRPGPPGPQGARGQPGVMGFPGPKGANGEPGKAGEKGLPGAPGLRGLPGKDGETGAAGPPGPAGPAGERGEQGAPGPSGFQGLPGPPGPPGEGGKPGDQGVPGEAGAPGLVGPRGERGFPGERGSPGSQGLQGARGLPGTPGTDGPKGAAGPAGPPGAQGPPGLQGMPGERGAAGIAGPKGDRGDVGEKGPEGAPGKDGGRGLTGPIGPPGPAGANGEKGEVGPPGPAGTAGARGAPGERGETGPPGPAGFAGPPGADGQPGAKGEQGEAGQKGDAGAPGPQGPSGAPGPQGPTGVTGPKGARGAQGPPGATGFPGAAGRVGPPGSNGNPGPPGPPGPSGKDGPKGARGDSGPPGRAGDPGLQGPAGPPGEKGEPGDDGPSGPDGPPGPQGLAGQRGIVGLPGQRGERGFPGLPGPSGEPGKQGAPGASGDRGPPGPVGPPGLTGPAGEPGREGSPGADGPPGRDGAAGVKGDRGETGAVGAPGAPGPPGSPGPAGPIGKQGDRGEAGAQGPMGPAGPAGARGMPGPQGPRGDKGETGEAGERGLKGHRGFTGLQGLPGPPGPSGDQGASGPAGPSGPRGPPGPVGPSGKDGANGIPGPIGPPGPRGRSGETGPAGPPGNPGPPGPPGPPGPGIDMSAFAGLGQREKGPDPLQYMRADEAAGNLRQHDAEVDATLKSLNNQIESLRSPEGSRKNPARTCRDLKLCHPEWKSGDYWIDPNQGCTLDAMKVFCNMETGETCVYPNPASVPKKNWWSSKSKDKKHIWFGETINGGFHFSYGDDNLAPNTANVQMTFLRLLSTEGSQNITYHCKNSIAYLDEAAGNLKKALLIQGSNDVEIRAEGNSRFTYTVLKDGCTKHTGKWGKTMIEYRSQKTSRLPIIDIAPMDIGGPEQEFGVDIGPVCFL

Sequence of Bovine collagen type IV (bovine) (Q7SIB2 28-1669, chain 1 of 2): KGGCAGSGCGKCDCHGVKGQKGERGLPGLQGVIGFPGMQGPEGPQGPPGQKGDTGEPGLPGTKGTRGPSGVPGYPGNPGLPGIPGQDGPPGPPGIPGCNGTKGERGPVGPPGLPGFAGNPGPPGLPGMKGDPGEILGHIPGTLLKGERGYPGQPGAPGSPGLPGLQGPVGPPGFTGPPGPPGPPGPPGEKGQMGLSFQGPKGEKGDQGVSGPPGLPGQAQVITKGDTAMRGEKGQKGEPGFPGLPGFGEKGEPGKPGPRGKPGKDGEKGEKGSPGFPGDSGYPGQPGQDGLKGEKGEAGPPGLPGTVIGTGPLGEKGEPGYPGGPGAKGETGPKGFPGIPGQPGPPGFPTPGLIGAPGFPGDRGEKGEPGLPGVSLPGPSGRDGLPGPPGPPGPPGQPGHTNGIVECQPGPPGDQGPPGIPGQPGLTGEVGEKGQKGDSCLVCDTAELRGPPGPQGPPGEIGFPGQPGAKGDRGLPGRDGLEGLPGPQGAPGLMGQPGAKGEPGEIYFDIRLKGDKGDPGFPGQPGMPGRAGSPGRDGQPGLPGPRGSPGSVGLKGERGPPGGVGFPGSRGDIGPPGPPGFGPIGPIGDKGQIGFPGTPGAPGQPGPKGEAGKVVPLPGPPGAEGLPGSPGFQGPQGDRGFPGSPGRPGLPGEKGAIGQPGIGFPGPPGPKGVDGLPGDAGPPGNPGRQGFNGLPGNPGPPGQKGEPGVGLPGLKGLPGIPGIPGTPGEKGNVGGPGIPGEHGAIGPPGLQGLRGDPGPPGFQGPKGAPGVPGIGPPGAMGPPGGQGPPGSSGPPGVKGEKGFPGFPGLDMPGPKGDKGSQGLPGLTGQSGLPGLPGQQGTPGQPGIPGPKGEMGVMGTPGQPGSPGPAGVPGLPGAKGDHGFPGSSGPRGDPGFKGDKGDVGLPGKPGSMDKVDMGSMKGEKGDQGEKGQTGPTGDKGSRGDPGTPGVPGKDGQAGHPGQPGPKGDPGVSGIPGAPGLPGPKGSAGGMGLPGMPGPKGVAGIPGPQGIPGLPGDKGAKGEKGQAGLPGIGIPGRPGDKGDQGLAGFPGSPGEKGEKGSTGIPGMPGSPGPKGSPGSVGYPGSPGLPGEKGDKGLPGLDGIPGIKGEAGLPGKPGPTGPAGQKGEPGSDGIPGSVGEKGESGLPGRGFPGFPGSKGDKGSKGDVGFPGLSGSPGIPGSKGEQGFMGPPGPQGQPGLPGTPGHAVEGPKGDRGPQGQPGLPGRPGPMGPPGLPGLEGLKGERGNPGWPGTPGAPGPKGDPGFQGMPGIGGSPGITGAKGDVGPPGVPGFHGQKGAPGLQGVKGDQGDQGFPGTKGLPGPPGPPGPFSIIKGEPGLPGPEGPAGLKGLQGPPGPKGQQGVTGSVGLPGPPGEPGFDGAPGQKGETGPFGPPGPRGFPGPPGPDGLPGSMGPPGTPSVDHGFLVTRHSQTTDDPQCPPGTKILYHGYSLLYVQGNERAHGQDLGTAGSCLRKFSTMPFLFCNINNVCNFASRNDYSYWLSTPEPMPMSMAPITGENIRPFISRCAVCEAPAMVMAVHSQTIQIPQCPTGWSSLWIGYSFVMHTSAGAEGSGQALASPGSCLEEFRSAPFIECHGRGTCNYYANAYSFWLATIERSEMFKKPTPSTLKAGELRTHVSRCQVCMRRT
Sequence of Bovine collagen type IV (bovine) (Q7SIB3 whole entry, chain 2 of 2, further chain): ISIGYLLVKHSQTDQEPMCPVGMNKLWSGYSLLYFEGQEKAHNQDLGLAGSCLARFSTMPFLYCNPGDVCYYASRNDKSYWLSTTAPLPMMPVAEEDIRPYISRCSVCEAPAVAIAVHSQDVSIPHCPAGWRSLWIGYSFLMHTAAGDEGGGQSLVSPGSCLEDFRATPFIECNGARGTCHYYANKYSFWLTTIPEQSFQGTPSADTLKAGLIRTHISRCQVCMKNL

B1: Recombinant bovine opticin (natural protein)
chain: ASLSEEREGDPYAILHLGDYVLSLDNYDEVIDPSNYDELIDYGDQLPQVKGTSLASLTRTRFTQSTEAARTLPSNPTTARPPTLGLLAAPANHGLPTCLICVCLGSSVYCDDADLENIPPLPQTTAYLYARFNRISHIRAGDFKGLTKLKRIDLSGNSISSIDDKALRLLPALRDLILPENKLVALPTLPTSIEVLDVRMNRLQSSGIQPEAFRALEKLQFLYLADNLLDAIPPSLPLSLRSLHLQNNMIETMQRDAFCDAEEHRHTRRPLEDIRLDGNPINLSLFPSAYFCLPRLPTGRFV
With B1 the Kd [1] was 500 nM and the Kd [2] was 40 nM.
